In patent US20220112288A1 (published 2022):
Residue numbers refer to the chain shown, from its start.

B1: 75110_03D16A (antibody, V domains shown)
VH: EVQLVESGGGLVQPGGSLRLSCAASGFTFSSYWMSWVRQAPGKGLEWVANINQDGGEKYYVDSVKGRFTISRDNAKNSLYLQMNSLRAEDTAVYYCVREGGQWLALDYWGQGTLVTVSS
VL: DIQMTQSPSSVSASVGDRVTITCRASQGISSWLTWYQQKPGKAPKFLIYAASSLQSGVPSRFSGSGFGTDFTLTISSLQPEDFATYYCQQANSFPWTFGQGTKVEIK
notes: Tested here as non-clonal hybridoma supernatant from AlivaMab Mouse Kappa mice (detected with anti-mouse Fc and anti-human kappa)
B2: 75110_01J09A (antibody, V domains shown)
VH: B1 VH with A23V, I51T, N52K, Q53E, G56S, E57D, S71C, V97A
VL: B1 VL with T22N, T34A, K45N, F46L, Y49F, A50G, T72S, S76T, S77T, Y87H
notes: as for B1
B3: 75110_05L07A (antibody, V domains shown)
VH: B1 VH with G56S, E57D, A75V, M83I, V97A, A105T
VL: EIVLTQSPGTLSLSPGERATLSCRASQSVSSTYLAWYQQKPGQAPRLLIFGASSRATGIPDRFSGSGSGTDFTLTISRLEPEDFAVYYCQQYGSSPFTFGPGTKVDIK
notes: as for B1
B4: 75110_12H19A (antibody, V domains shown)
VH: B1 VH with K43Q, Q53E, G56N, Y60H, F68L, A88G, E89V, Y95F, V97A, T113A
VL: B1 VL with T20S, T34A, F46L, A50G, S53G, F67S
notes: as for B1
B5: 75110_07H07A (antibody, V domains shown)
VH: B1 VH with L4V, N52K, Q53E, D54E, G56S
VL: B1 VL with A13G, T34A, F46L, Y49F, A50G, F67S, E105Q
notes: as for B1
B6: 75110_12H17A (antibody, V domains shown)
VH: B1 VH with S31D, N52K, Q53E, G56N, Y80F, V97A, T113A
VL: B1 VL with T34A, Y49S, A50G, S63T, F67S
notes: as for B1
B7: 75110_09N20A (antibody, V domains shown)
VH: B1 VH with Q53E, G56S
VL: B1 VL with T34A, F46L, R61S, F67S, S76N, E105A
notes: as for B1
B8: 75110_04K10A (antibody, V domains shown)
VH: B1 VH with G56S, M83L, V93M, V97A, A105S
VL: B1 VL with T34A, F46V, A50G, A51V, L54F, F67S, T72I
notes: as for B1
B9: 75110_09G15A (antibody, V domains shown)
VH: B1 VH with S31D, G56S, Y60S, V93I, Y94F, V97A
VL: B1 VL with T34A, F46L, A50G, F67S, S76N, A84T, S93I
notes: as for B1
B10: 75110_04B08A (antibody, V domains shown)
VH: QVQLVESGGGVVQPGRSLRLSCTASGFNFINYGIHWVRQAPGKGLEWVTIIWYDGSKKYYADSVKGRFAISRDNSKNTLYLQMNSLRAEDTAVYYCAREDDWNDGLAYWGQGTLVTVSS
VL: AIQMTQSPSSLSASVGDRVTITCRASQDIRNDLGWYQQKPGKAPNLLIYAASNLQSGVPSRFSGSGSGTDFTLTISSLQPEDFATYYCLQDSNYPRTFGQGTKVEIK
notes: as for B1
B11: 75110_10L22A (antibody, V domains shown)
VH: EVQLVESGGGLVQPGGSLRLSCAASGFTFSSYDMHWVRQATGKGLEWVSTIGTAGDTYYPGSVKGRFTISRENAKNSLYLQMNGLRAGDTAVYYCARGNYFYYGVDVWGQGTTVTVSS
VL: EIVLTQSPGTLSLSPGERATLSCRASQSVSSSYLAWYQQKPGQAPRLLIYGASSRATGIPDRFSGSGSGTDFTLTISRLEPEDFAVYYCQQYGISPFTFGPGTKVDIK
notes: as for B1

Target: T1, human CD4 on the surface of SKW3 cells or human PBMCs (human, UniProt P01730 26-458)
T1 construct: whole, on cells; SKW3 CD4 knockout cells served as the negative cell line; also called hCD4; SKW3 WT
Experiment: FACS confirmation, supernatant on human PBMCs, anti-mouse Fc A647
Method: (§1) FACS Confirmation screens were performed for primary screening positive hybridomas using human PBMCs in addition to SKW3/SKW3 CD4 KO cell lines. PBMCs were thawed and resuspended to 8E6/mL in FACS buffer. […] PBMCs were added to the 96 well plates (25 μL/well) and incubated at 4° C. for 30 minutes. […] Cells were washed twice before acquired by IQUE3 Flow Cytometer and analyzed with FORECYT software (Sartorius). Primary parameter used to assess confirmation was CD4 positive percent of viable cells. […] SKW3 gMFI binding was used as secondary parameter to assess confirmation.

Row | Binder | PBMCs, anti-mFc 647 CD4+ Percent Bound of Viable [%]
1 | B1 | 31
2 | B2 | 31
3 | B3 | 29
4 | B4 | 27
5 | B5 | 27
6 | B6 | 29
7 | B7 | 33
8 | B8 | 33
9 | B9 | 28
10 | B10 | 29
11 | B11 | 31

Target: T1, human CD4 on the surface of SKW3 cells …
Experiment: FACS confirmation, supernatant on human PBMCs, anti-mouse Fc A647, CD4+ gate
Method: as §1

Row | Binder | PBMCs, anti-mFc 647 CD4+ gate - RL1 Binding
12 | B1 | 319000
13 | B2 | 321000
14 | B3 | 181000
15 | B4 | 244000
16 | B5 | 234000
17 | B6 | 264000
18 | B7 | 287000
19 | B8 | 346000
20 | B9 | 304000
21 | B10 | 274000
22 | B11 | 283000

Target: T1, human CD4 on the surface of SKW3 cells …
Experiment: FACS confirmation, supernatant on SKW3 WT cells, anti-mouse Fc A647; background gMFI 3300
Method: as §1

Row | Binder | SKW3 WT anti-mFc 647, gMFI [gMFI]
23 | B1 | 36000
24 | B2 | 32300
25 | B3 | 16300
26 | B4 | 22800
27 | B5 | 34300
28 | B6 | 18000
29 | B7 | 24800
30 | B8 | 36700
31 | B9 | 22300
32 | B10 | 22600
33 | B11 | 27600

Target: T1, human CD4 on the surface of SKW3 cells …
Experiment: FACS confirmation, supernatant on SKW3 WT cells, anti-human kappa FITC; background gMFI 2500

Row | Binder | SKW3 WT anti-hu Kappa FITC, gMFI [gMFI]
34 | B1 | 7600
35 | B2 | 5930
36 | B3 | 5130
37 | B4 | 6550
38 | B5 | 8510
39 | B6 | 5360
40 | B7 | 5880
41 | B8 | 6710
42 | B9 | 5810
43 | B10 | 6160
44 | B11 | 7020

Target: T1, human CD4 on the surface of SKW3 cells …
Experiment: FACS primary screen, non-clonal hybridoma supernatant, SKW3 vs SKW3 CD4 KO cells, anti-mouse Fc A647
Method: (§2) FACS cell binding. αCD4 antibody producing hybridomas were identified by cell surface CD4 binding using FACS. For primary screening SKW3 (human T-ALL) was used as the CD4 positive cell line and SKW3 CD4 knockout (KO) as the negative cell line, respectively. SKW3 KO cells were labeled with Tag-it Violet (BioLegend) at RT for 15 min. After removing extra dye by washing cells with FACS buffer (1% BSA/1 mM EDTA/0.05% NaN3 in PBS) equal number of SKW3 and labeled SKW3 CD4 KO cells were combined, washed, and resuspended in FACS buffer at 8E6 cells/6 mL. […] Cells (˜20K/15 μL/well) were added to the supernatant and incubated at 4° C. for 30 minutes. […] Cells were washed twice before acquired by IQUE3 Flow Cytometer and analyzed with FORECYT software (Sartorius). Positive wells were selected with the following criteria: Over 2-fold selective binding to SKW3 cell line relative to SKW3 CD4 KO with over 10% signal above background binding with anti-human Kappa. Hybridomas from primary screening positive wells were transferred to 96 well plates.

Row | Binder | SKW3 WT vs KO anti-mFc-647 [ratio]
45 | B1 | 6.5
46 | B2 | 7.5
47 | B3 | 3.9
48 | B4 | 5.2
49 | B5 | 5.7
50 | B6 | 4
51 | B7 | 5.4
52 | B8 | 5
53 | B9 | 4.8
54 | B10 | 6.7
55 | B11 | 3.4

Target: T1, human CD4 on the surface of SKW3 cells …
Experiment: FACS primary screen, non-clonal hybridoma supernatant, SKW3 vs SKW3 CD4 KO cells, anti-human kappa FITC
Method: as §2

Row | Binder | SKW3 WT vs KO anti-hKappa-FITC [ratio]
56 | B1 | 2.8
57 | B2 | 2.4
58 | B3 | 1.5
59 | B4 | 2.4
60 | B5 | 2.3
61 | B6 | 2
62 | B7 | 2.2
63 | B8 | 1.5
64 | B9 | 2
65 | B10 | 2.3
66 | B11 | 2.1

Target: T1, human CD4 on the surface of SKW3 cells …
Experiment: FACS binning on SKW3 cells; competitor OKT4-Alexa Fluor 488 (its signal read); background 2163, max binding 8200
Method: (§3) αCD4 containing hybridoma supernatants were binned against three comparator antibodies by FACS using SKW3 cells, which endogenously express human CD4 protein. Briefly, SKW3 cells were incubated with saturated hybridoma supernatant for 30 minutes at 4° C.

Row | Binder | OKT4 A488 signal
67 | B1 | 2280
68 | B2 | 2140
69 | B3 | 3120
70 | B4 | 2620
71 | B5 | 2060
72 | B6 | 4020
73 | B7 | 2700
74 | B8 | 2760
75 | B9 | 2990
76 | B10 | 3170
77 | B11 | 2850

Target: T1, human CD4 on the surface of SKW3 cells …
Experiment: FACS binning on SKW3 cells; competitor RPA-T4-PE-Dazzle 594 (its signal read); background 783, max binding 15000
Method: as §3

Row | Binder | RPA-T4-PE-Dazzle 594 signal
78 | B1 | 12300
79 | B2 | 14700
80 | B3 | 15900
81 | B4 | 14600
82 | B5 | 14900
83 | B6 | 14800
84 | B7 | 14700
85 | B8 | 9800
86 | B9 | 14800
87 | B10 | 14900
88 | B11 | 15000

Target: T2, huCD4-HIS (human, UniProt P01730 26-390, limits assumed)
T2 construct: not shown: HIS tag
Experiment: ELISA binning; competitor ibalizumab; 100 ng/mL huCD4-HIS, anti-HIS HRP detection; background 45, max binding 3000000

Row | Binder | Ibalizumab ELISA binning signal
89 | B1 | 663000
90 | B2 | 1.26e+06
91 | B3 | 2.57e+06
92 | B4 | 1.74e+06
93 | B5 | 2.11e+06
94 | B6 | 2.2e+06
95 | B7 | 1.76e+06
96 | B8 | 1.13e+06
97 | B9 | 1.99e+06
98 | B10 | 1.95e+06
99 | B11 | 1.88e+06

Target: T1, human CD4 on the surface of SKW3 cells …
Experiment: FACS binning on SKW3 cells; competitor OKT4a, anti-human A647 secondary (its signal read); background 5000, max binding 35000
Method: as §3

Row | Binder | OKT4a anti-hu A647 Secondary signal
100 | B1 | 35900
101 | B2 | 43700
102 | B3 | 37400
103 | B4 | 34400
104 | B5 | 39400
105 | B6 | 42000
106 | B7 | 46600
107 | B8 | 43100
108 | B9 | 44600
109 | B10 | 43400
110 | B11 | 45900
